{
  "source": "patent US20240092841A1",
  "key": {"[1]": {"target": "Laminin subunit alpha-5 (human) (UniProt O15230)", "experiment": "co-IP with agarose-bound AvFc from H460 whole-cell lysate, mass spectrometry"}, "[2]": {"target": "Secretory carrier-associated membrane protein 3 (human) (UniProt O14828)", "experiment": "co-IP with agarose-bound AvFc from H460 whole-cell lysate, mass spectrometry"}, "Integrin beta-5 (human)": {"target": "Integrin beta-5 (human) (UniProt P18084)", "experiment": "co-IP with agarose-bound AvFc from H460 whole-cell lysate, mass spectrometry"}, "[3]": {"target": "Prolow-density lipoprotein receptor-related protein 1 (human) (UniProt Q07954)", "experiment": "co-IP with agarose-bound AvFc from H460 whole-cell lysate, mass spectrometry"}, "Filamin-A (human)": {"target": "Filamin-A (human) (UniProt P21333)", "experiment": "co-IP with agarose-bound AvFc from H460 whole-cell lysate, mass spectrometry"}, "Integrin alpha-1 (human) [4]": {"target": "Integrin alpha-1 (human) (UniProt P56199)", "experiment": "co-IP with agarose-bound AvFc from H460 whole-cell lysate, mass spectrometry"}, "Integrin alpha-3 (human) [5]": {"target": "Integrin alpha-3 (human) (UniProt P26006)", "sequence (P26006 33-1051 limits assumed)": "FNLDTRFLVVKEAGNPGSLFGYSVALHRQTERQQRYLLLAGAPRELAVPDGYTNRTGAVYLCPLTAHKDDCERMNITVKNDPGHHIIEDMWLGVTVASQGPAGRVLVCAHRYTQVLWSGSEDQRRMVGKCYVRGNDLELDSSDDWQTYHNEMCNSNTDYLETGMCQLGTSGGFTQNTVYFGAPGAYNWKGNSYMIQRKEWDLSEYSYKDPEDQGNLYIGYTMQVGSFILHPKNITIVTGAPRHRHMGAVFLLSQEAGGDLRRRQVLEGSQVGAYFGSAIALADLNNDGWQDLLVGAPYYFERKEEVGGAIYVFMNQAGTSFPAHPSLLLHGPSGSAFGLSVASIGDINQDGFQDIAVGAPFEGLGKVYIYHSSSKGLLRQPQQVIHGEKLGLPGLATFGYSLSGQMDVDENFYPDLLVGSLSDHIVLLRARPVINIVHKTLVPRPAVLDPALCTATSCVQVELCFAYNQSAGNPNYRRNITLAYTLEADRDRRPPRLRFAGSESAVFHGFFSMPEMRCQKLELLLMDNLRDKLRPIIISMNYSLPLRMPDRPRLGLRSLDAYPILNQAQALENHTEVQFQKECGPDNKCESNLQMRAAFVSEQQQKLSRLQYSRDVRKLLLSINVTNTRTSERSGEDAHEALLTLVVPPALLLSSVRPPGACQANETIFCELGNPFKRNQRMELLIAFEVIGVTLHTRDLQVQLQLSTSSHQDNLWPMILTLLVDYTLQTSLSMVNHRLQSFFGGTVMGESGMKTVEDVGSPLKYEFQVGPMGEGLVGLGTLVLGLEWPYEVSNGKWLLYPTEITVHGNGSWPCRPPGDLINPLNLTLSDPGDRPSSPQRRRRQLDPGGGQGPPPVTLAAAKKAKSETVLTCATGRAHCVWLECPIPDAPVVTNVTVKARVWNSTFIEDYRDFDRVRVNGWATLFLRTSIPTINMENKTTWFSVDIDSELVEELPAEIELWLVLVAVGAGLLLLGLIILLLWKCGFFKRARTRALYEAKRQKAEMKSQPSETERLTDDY", "experiment": "co-IP with agarose-bound AvFc from H460 whole-cell lysate, mass spectrometry"}, "Nidogen-2 (human)": {"target": "Nidogen-2 (human) (UniProt Q14112)", "experiment": "co-IP with agarose-bound AvFc from H460 whole-cell lysate, mass spectrometry"}, "Serpin H1 (human) [6]": {"target": "Serpin H1 (human) (UniProt P50454)", "sequence (P50454 19-418 limits assumed)": "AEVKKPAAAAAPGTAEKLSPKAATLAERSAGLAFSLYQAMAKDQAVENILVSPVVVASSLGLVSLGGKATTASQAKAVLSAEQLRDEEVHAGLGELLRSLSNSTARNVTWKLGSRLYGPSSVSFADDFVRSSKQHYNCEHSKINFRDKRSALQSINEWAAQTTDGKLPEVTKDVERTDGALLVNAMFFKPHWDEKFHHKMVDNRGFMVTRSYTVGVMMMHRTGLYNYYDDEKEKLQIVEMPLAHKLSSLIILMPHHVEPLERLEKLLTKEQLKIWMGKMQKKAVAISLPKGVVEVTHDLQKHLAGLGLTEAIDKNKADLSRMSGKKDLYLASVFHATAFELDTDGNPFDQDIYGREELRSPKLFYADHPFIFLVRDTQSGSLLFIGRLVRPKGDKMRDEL", "experiment": "co-IP with agarose-bound AvFc from H460 whole-cell lysate, mass spectrometry"}, "Integrin alpha-V (human) [7]": {"target": "Integrin alpha-V (human) (UniProt P06756)", "sequence (P06756 other isoform, or with tags, fused parts or gaps limits assumed)": "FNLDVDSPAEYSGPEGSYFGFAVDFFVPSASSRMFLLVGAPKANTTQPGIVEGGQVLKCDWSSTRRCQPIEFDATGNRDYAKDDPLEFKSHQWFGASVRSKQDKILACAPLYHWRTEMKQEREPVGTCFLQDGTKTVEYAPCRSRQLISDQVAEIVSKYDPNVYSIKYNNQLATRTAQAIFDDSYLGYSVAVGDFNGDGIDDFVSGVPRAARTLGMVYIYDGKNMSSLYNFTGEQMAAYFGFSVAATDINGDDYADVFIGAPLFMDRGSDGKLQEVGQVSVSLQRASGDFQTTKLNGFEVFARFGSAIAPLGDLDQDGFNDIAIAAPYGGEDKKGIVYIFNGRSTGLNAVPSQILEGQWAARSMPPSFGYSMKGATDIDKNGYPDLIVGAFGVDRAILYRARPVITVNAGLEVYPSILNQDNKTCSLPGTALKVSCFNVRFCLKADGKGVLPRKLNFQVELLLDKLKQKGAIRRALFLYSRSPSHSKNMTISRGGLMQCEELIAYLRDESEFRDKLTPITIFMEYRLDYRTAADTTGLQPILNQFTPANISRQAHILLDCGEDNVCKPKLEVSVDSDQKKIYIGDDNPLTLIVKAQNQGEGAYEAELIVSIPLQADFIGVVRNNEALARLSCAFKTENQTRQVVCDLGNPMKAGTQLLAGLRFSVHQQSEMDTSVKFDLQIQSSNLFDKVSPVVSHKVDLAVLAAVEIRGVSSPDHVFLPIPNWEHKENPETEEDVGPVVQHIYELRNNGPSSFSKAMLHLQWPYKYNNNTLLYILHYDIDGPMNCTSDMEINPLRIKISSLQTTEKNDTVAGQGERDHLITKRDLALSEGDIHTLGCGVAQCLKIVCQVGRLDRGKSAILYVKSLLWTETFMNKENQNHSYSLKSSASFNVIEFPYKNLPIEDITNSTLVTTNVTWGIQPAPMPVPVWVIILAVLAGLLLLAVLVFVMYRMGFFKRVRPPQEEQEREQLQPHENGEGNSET", "experiment": "co-IP with agarose-bound AvFc from H460 whole-cell lysate, mass spectrometry"}, "[8]": {"target": "Disintegrin and metalloproteinase domain-containing protein 9 (human) (UniProt Q13443)", "experiment": "co-IP with agarose-bound AvFc from H460 whole-cell lysate, mass spectrometry"}, "[9]": {"target": "Laminin subunit beta-2 (human) (UniProt P55268)", "sequence (P55268 33-1798 limits assumed)": "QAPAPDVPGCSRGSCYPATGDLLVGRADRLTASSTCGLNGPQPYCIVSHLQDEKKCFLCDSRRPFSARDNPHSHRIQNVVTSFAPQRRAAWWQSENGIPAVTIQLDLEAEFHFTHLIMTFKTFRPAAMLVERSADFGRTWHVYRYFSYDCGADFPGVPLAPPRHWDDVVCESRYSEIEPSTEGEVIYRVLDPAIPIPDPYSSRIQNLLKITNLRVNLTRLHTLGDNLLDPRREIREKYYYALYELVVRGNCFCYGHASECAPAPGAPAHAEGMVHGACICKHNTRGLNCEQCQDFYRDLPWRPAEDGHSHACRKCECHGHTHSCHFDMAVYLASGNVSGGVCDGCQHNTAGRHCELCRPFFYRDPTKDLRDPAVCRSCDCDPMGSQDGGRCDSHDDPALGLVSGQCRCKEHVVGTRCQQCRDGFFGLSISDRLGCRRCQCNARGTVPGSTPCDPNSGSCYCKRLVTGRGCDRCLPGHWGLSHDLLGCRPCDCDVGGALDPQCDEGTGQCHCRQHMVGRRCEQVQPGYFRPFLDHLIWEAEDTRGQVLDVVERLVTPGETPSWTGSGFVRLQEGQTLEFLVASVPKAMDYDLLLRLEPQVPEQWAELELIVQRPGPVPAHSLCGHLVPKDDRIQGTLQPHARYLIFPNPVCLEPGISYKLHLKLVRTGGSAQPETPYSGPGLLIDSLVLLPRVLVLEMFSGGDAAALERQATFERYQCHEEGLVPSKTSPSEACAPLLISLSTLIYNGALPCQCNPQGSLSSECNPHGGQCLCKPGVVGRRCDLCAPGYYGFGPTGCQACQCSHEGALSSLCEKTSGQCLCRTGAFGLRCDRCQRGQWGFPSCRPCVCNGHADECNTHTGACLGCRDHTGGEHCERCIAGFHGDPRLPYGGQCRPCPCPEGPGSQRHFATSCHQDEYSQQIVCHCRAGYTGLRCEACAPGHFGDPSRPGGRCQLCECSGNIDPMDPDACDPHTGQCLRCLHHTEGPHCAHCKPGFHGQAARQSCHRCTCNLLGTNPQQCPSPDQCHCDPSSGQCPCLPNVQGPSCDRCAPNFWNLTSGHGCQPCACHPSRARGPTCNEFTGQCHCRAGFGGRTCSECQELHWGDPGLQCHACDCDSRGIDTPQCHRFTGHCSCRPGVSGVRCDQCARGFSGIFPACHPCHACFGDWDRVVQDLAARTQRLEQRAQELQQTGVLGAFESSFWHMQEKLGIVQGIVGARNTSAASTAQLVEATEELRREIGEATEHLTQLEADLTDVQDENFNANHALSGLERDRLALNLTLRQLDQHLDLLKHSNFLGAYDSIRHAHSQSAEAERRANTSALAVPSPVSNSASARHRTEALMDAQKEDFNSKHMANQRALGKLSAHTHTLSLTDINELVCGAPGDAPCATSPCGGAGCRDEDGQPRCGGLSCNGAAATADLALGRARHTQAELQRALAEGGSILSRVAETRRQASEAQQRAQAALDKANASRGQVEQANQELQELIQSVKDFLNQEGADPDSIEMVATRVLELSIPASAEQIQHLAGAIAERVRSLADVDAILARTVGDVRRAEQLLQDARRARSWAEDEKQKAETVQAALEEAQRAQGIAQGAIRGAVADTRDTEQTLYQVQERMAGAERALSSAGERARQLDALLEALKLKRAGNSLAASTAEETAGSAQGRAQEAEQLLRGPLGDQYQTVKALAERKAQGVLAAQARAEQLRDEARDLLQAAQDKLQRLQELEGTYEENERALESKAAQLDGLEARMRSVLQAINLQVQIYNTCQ", "experiment": "co-IP with agarose-bound AvFc from H460 whole-cell lysate, mass spectrometry"}, "[10]": {"target": "Spectrin beta chain, non-erythrocytic 1 (human) (UniProt Q01082)", "experiment": "co-IP with agarose-bound AvFc from A549 whole-cell lysate, mass spectrometry"}, "[11]": {"target": "Laminin subunit alpha-5 (human) (UniProt O15230)", "experiment": "co-IP with agarose-bound AvFc from A549 whole-cell lysate, mass spectrometry"}, "[12]": {"target": "Contactin-associated protein-like 3 (human) (UniProt Q9BZ76)", "experiment": "co-IP with agarose-bound AvFc from A549 whole-cell lysate, mass spectrometry"}, "[13]": {"target": "Prolow-density lipoprotein receptor-related protein 1 (human) (UniProt Q07954)", "experiment": "co-IP with agarose-bound AvFc from A549 whole-cell lysate, mass spectrometry"}, "Integrin alpha-1 (human) [14]": {"target": "Integrin alpha-1 (human) (UniProt P56199)", "experiment": "co-IP with agarose-bound AvFc from A549 whole-cell lysate, mass spectrometry"}, "[15]": {"target": "Laminin subunit gamma-1 (human) (UniProt P11047)", "experiment": "co-IP with agarose-bound AvFc from A549 whole-cell lysate, mass spectrometry"}, "[16]": {"target": "Protocadherin Fat 1 (human) (UniProt Q14517)", "experiment": "co-IP with agarose-bound AvFc from A549 whole-cell lysate, mass spectrometry"}, "Polycystin-2 (human)": {"target": "Polycystin-2 (human) (UniProt Q13563)", "experiment": "co-IP with agarose-bound AvFc from A549 whole-cell lysate, mass spectrometry"}, "Integrin alpha-3 (human) [17]": {"target": "Integrin alpha-3 (human) (UniProt P26006)", "experiment": "co-IP with agarose-bound AvFc from A549 whole-cell lysate, mass spectrometry"}, "[18]": {"target": "Endothelial protein C receptor (human) (UniProt Q9UNN8)", "sequence (Q9UNN8 18-238 limits assumed)": "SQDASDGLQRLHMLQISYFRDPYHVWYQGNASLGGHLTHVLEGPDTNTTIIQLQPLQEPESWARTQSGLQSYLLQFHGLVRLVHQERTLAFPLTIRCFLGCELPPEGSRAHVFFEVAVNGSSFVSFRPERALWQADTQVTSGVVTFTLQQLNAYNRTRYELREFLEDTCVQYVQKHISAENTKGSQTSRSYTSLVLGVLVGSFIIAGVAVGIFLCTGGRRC", "experiment": "co-IP with agarose-bound AvFc from A549 whole-cell lysate, mass spectrometry"}, "Attractin (human)": {"target": "Attractin (human) (UniProt O75882)", "experiment": "co-IP with agarose-bound AvFc from A549 whole-cell lysate, mass spectrometry"}, "CD109 antigen (human)": {"target": "CD109 antigen (human) (UniProt Q6YHK3)", "experiment": "co-IP with agarose-bound AvFc from A549 whole-cell lysate, mass spectrometry"}, "[19]": {"target": "Sortilin-related receptor (human) (UniProt Q92673)", "experiment": "co-IP with agarose-bound AvFc from A549 whole-cell lysate, mass spectrometry"}, "[20]": {"target": "Adhesion G protein-coupled receptor L2 (human) (UniProt O95490)", "experiment": "co-IP with agarose-bound AvFc from A549 whole-cell lysate, mass spectrometry"}, "Agrin (human)": {"target": "Agrin (human) (UniProt O00468)", "experiment": "co-IP with agarose-bound AvFc from A549 whole-cell lysate, mass spectrometry"}, "Plexin-B2 (human)": {"target": "Plexin-B2 (human) (UniProt O15031)", "experiment": "co-IP with agarose-bound AvFc from A549 whole-cell lysate, mass spectrometry"}, "Serpin H1 (human) [21]": {"target": "Serpin H1 (human) (UniProt P50454)", "experiment": "co-IP with agarose-bound AvFc from A549 whole-cell lysate, mass spectrometry"}, "[22]": {"target": "Tetratricopeptide repeat protein 17 (human) (UniProt Q96AE7)", "experiment": "co-IP with agarose-bound AvFc from A549 whole-cell lysate, mass spectrometry"}, "Integrin alpha-5 (human)": {"target": "Integrin alpha-5 (human) (UniProt P08648)", "experiment": "co-IP with agarose-bound AvFc from A549 whole-cell lysate, mass spectrometry"}, "[23]": {"target": "Cation-dependent mannose-6-phosphate receptor (human) (UniProt P20645)", "experiment": "co-IP with agarose-bound AvFc from A549 whole-cell lysate, mass spectrometry"}, "Integrin alpha-V (human) [24]": {"target": "Integrin alpha-V (human) (UniProt P06756)", "experiment": "co-IP with agarose-bound AvFc from A549 whole-cell lysate, mass spectrometry"}, "[25]": {"target": "Magnesium transporter protein 1 (human) (UniProt Q9H0U3)", "sequence (Q9H0U3 30-335 limits assumed)": "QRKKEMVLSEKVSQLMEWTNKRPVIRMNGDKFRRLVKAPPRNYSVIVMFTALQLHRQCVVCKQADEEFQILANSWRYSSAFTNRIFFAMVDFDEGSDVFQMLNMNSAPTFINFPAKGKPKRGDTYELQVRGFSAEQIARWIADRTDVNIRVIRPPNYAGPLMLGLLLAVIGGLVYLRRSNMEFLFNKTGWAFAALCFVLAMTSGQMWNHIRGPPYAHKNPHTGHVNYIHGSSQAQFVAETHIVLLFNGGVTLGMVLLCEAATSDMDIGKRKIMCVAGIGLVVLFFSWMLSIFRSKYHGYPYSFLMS", "experiment": "co-IP with agarose-bound AvFc from A549 whole-cell lysate, mass spectrometry"}, "[26]": {"target": "Transmembrane protein 106B (human) (UniProt Q9NUM4)", "sequence (Q9NUM4 2-274 limits assumed)": "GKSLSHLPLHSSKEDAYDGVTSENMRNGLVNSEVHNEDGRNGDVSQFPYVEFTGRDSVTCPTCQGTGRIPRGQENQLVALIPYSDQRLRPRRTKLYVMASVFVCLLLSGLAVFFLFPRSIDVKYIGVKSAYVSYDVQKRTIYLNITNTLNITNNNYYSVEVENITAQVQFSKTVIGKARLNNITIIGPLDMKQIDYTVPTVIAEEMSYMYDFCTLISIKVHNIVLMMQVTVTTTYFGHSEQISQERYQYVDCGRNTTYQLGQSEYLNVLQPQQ", "experiment": "co-IP with agarose-bound AvFc from A549 whole-cell lysate, mass spectrometry"}, "[27]": {"target": "Laminin subunit beta-2 (human) (UniProt P55268)", "experiment": "co-IP with agarose-bound AvFc from A549 whole-cell lysate, mass spectrometry"}, "[28]": {"target": "Importin subunit beta-1 (human) (UniProt Q14974)", "experiment": "co-IP with agarose-bound AvFc from A549 whole-cell lysate, mass spectrometry"}, "[29]": {"target": "Sodium/potassium-transporting ATPase subunit beta-1 (human) (UniProt P05026)", "experiment": "co-IP with agarose-bound AvFc from A549 whole-cell lysate, mass spectrometry"}, "[30]": {"target": "Isoform 6 of Myoferlin (human) (UniProt Q9NZM1)", "experiment": "co-IP with agarose-bound AvFc from A549 whole-cell lysate, mass spectrometry"}},
  "data": [
    {"substance": "Avaren-Fc (AvFc) (Fc fusion)", "values": [
      {"measurement": "Percentage of Total Spectra (%)", "setting": "[1]", "value": 0.23, "unit": "%"},
      {"measurement": "Percentage of Total Spectra (%)", "setting": "[2]", "value": 0.083, "unit": "%"},
      {"measurement": "Percentage of Total Spectra (%)", "setting": "Integrin beta-5 (human)", "value": 0.12, "unit": "%"},
      {"measurement": "Percentage of Total Spectra (%)", "setting": "[3]", "value": 0.017, "unit": "%"},
      {"measurement": "Percentage of Total Spectra (%)", "setting": "Filamin-A (human)", "value": 0.13, "unit": "%"},
      {"measurement": "Percentage of Total Spectra (%)", "setting": "Integrin alpha-1 (human) [4]", "value": 0.13, "unit": "%"},
      {"measurement": "Percentage of Total Spectra (%)", "setting": "Integrin alpha-3 (human) [5]", "value": 0.025, "unit": "%"},
      {"measurement": "Percentage of Total Spectra (%)", "setting": "Nidogen-2 (human)", "value": 0.066, "unit": "%"},
      {"measurement": "Percentage of Total Spectra (%)", "setting": "Serpin H1 (human) [6]", "value": 0.058, "unit": "%"},
      {"measurement": "Percentage of Total Spectra (%)", "setting": "Integrin alpha-V (human) [7]", "value": 0.13, "unit": "%"},
      {"measurement": "Percentage of Total Spectra (%)", "setting": "[8]", "value": 0.091, "unit": "%"},
      {"measurement": "Percentage of Total Spectra (%)", "setting": "[9]", "value": 0.16, "unit": "%"},
      {"measurement": "Percentage of Total Spectra (%)", "setting": "[10]", "value": 0.11, "unit": "%"},
      {"measurement": "Percentage of Total Spectra (%)", "setting": "[11]", "value": 0.34, "unit": "%"},
      {"measurement": "Percentage of Total Spectra (%)", "setting": "[12]", "value": 0.11, "unit": "%"},
      {"measurement": "Percentage of Total Spectra (%)", "setting": "[13]", "value": 0.056, "unit": "%"},
      {"measurement": "Percentage of Total Spectra (%)", "setting": "Integrin alpha-1 (human) [14]", "value": 0.021, "unit": "%"},
      {"measurement": "Percentage of Total Spectra (%)", "setting": "[15]", "value": 0.36, "unit": "%"},
      {"measurement": "Percentage of Total Spectra (%)", "setting": "[16]", "value": 0.12, "unit": "%"},
      {"measurement": "Percentage of Total Spectra (%)", "setting": "Polycystin-2 (human)", "value": 0.17, "unit": "%"},
      {"measurement": "Percentage of Total Spectra (%)", "setting": "Integrin alpha-3 (human) [17]", "value": 0.15, "unit": "%"},
      {"measurement": "Percentage of Total Spectra (%)", "setting": "[18]", "value": 0.014, "unit": "%"},
      {"measurement": "Percentage of Total Spectra (%)", "setting": "Attractin (human)", "value": 0.084, "unit": "%"},
      {"measurement": "Percentage of Total Spectra (%)", "setting": "CD109 antigen (human)", "value": 0.13, "unit": "%"},
      {"measurement": "Percentage of Total Spectra (%)", "setting": "[19]", "value": 0.12, "unit": "%"},
      {"measurement": "Percentage of Total Spectra (%)", "setting": "[20]", "value": 0.091, "unit": "%"},
      {"measurement": "Percentage of Total Spectra (%)", "setting": "Agrin (human)", "value": 0.21, "unit": "%"},
      {"measurement": "Percentage of Total Spectra (%)", "setting": "Plexin-B2 (human)", "value": 0.12, "unit": "%"},
      {"measurement": "Percentage of Total Spectra (%)", "setting": "Serpin H1 (human) [21]", "value": 0.063, "unit": "%"},
      {"measurement": "Percentage of Total Spectra (%)", "setting": "[22]", "value": 0.13, "unit": "%"},
      {"measurement": "Percentage of Total Spectra (%)", "setting": "Integrin alpha-5 (human)", "value": 0.035, "unit": "%"},
      {"measurement": "Percentage of Total Spectra (%)", "setting": "[23]", "value": 0.028, "unit": "%"},
      {"measurement": "Percentage of Total Spectra (%)", "setting": "Integrin alpha-V (human) [24]", "value": 0.15, "unit": "%"},
      {"measurement": "Percentage of Total Spectra (%)", "setting": "[25]", "value": 0.021, "unit": "%"},
      {"measurement": "Percentage of Total Spectra (%)", "setting": "[26]", "value": 0.098, "unit": "%"},
      {"measurement": "Percentage of Total Spectra (%)", "setting": "[27]", "value": 0.056, "unit": "%"},
      {"measurement": "Percentage of Total Spectra (%)", "setting": "[28]", "value": 0.056, "unit": "%"},
      {"measurement": "Percentage of Total Spectra (%)", "setting": "[29]", "value": 0.056, "unit": "%"},
      {"measurement": "Percentage of Total Spectra (%)", "setting": "[30]", "value": 0.17, "unit": "%"}
    ]}
  ]
}
